Assay results as given in patent US20220048967A1 (published 2022).
Residue numbers refer to the chain shown, from its start. Numbered stars: 1 amine (or outer) side, 2 acyl side, 3 side chain; on linkers, the order of the positions; unused ones are H or OH. Square brackets hold non-standard residues; d marks the D form. Side chains are listed from the residue outwards. Ends that are not written are not given here. * marks the point of attachment. C20 diacid = O=C(O)CCCCCCCCCCCCCCCCCCC(=O)*; γGlu = O=C(O)[C@H](CCC(=O)[*:2])N[*:1]; AEEA = NCCOCCOCC(=O)O; Aib = CC(C)(N)C(=O)O

T1: human gastric inhibitory peptide receptor (GIPR) (human, UniProt P48546 22-466)
T1 sequence (looked up): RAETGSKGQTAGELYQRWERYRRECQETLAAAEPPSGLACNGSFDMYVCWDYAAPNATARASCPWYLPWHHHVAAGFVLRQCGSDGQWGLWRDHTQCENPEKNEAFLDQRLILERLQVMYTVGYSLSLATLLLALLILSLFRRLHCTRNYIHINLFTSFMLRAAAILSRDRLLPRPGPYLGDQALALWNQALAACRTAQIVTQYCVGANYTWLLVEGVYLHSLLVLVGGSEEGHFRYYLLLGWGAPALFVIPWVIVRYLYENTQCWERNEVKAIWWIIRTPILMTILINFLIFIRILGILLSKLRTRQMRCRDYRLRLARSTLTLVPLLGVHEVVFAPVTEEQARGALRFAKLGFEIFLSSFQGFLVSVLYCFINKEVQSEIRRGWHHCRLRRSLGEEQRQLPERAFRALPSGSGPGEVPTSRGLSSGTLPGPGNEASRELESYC

B1: Example 247 (peptide)
peptide: YXEGTXTSDYSIXLDXKAQXEFIXYLIEGGPSSGAPPPS
modifications: Aib2, αMeF(2F)6, Aib13, Orn16, (2-[2-(2-Amino-ethoxy)-ethoxy]-acetyl)2-(γ-Glu)-CO-(CH2)16-CO2H on K17, Aib20, D-Glu24, C-terminal NH2
B2: Example 248 (peptide)
peptide: B1 peptide with X13L
modifications: Aib2, αMeF(2F)6, Orn16, (2-[2-(2-Amino-ethoxy)-ethoxy]-acetyl)2-(γ-Glu)-CO-(CH2)16-CO2H on K17, Aib20, D-Glu24, C-terminal NH2
B3: Example 249 (peptide)
peptide: B1 peptide
modifications: Aib2, αMeF(2F)6, Nle13, Orn16, (2-[2-(2-Amino-ethoxy)-ethoxy]-acetyl)2-(γ-Glu)-CO-(CH2)16-CO2H on K17, Aib20, D-Glu24, C-terminal NH2
B4: Example 250 (peptide)
peptide: B1 peptide
modifications: Aib2, αMeF(2F)6, Aib13, Orn16, (2-[2-(2-Amino-ethoxy)-ethoxy]-acetyl)2-(γ-Glu)-CO-(CH2)18-CO2H on K17, Aib20, D-Glu24, C-terminal NH2
B5: Example 253 (peptide)
peptide: YXEGTFTSDYSILLDKKAQAAFIEYLIEGGPSSGAPPPS
modifications: Aib2, (2-[2-(2-Amino-ethoxy)-ethoxy]-acetyl)2-(γ-Glu)-CO-(CH2)18-CO2H on K17, C-terminal NH2
B6: Example 254 (peptide)
peptide: B5 peptide with A20Q
modifications: Aib2, (2-[2-(2-Amino-ethoxy)-ethoxy]-acetyl)2-(γ-Glu)-CO-(CH2)18-CO2H on K17, C-terminal NH2
B7: Example 255 (peptide)
peptide: B5 peptide with A20H
modifications: Aib2, (2-[2-(2-Amino-ethoxy)-ethoxy]-acetyl)2-(γ-Glu)-CO-(CH2)18-CO2H on K17, C-terminal NH2
B8: Example 256 (peptide)
peptide: B5 peptide with A20K
modifications: Aib2, (2-[2-(2-Amino-ethoxy)-ethoxy]-acetyl)2-(γ-Glu)-CO-(CH2)18-CO2H on K17, C-terminal NH2
B9: Example 257 (peptide)
peptide: B5 peptide with A20R
modifications: Aib2, (2-[2-(2-Amino-ethoxy)-ethoxy]-acetyl)2-(γ-Glu)-CO-(CH2)18-CO2H on K17, C-terminal NH2
B10: Example 258 (peptide)
peptide: Y[Aib]EGTFTSDYSILLDEK([AEEA-AEEA-γGlu-C20 diacid])AQKAFIEYLIEGGPSSGAPPPS-NH2
modifications: N-terminus assumed
SMILES: CC[C@H](C)[C@H](NC(=O)[C@H](CC(C)C)NC(=O)[C@H](Cc1ccc(O)cc1)NC(=O)[C@H](CCC(=O)O)NC(=O)[C@@H](NC(=O)[C@H](Cc1ccccc1)NC(=O)[C@H](C)NC(=O)[C@H](CCCCN)NC(=O)[C@H](CCC(N)=O)NC(=O)[C@H](C)NC(=O)[C@H](CCCCNC(=O)COCCOCCNC(=O)COCCOCCNC(=O)CC[C@H](NC(=O)CCCCCCCCCCCCCCCCCCC(=O)O)C(=O)O)NC(=O)[C@H](CCC(=O)O)NC(=O)[C@H](CC(=O)O)NC(=O)[C@H](CC(C)C)NC(=O)[C@H](CC(C)C)NC(=O)[C@@H](NC(=O)[C@H](CO)NC(=O)[C@H](Cc1ccc(O)cc1)NC(=O)[C@H](CC(=O)O)NC(=O)[C@H](CO)NC(=O)[C@@H](NC(=O)[C@H](Cc1ccccc1)NC(=O)[C@@H](NC(=O)CNC(=O)[C@H](CCC(=O)O)NC(=O)C(C)(C)NC(=O)[C@@H](N)Cc1ccc(O)cc1)[C@@H](C)O)[C@@H](C)O)[C@@H](C)CC)[C@@H](C)CC)C(=O)N[C@@H](CCC(=O)O)C(=O)NCC(=O)NCC(=O)N1CCC[C@H]1C(=O)N[C@@H](CO)C(=O)N[C@@H](CO)C(=O)NCC(=O)N[C@@H](C)C(=O)N1CCC[C@H]1C(=O)N1CCC[C@H]1C(=O)N1CCC[C@H]1C(=O)N[C@@H](CO)C(N)=O
B11: Example 259 (peptide)
peptide: Y[Aib]EGTFTSDYSILLDEK([AEEA-AEEA-γGlu-C20 diacid])AQ[Aib]AFIEYLIEGGPSSGAPPPS-NH2
modifications: N-terminus assumed
SMILES: CC[C@H](C)[C@H](NC(=O)[C@H](CC(C)C)NC(=O)[C@H](Cc1ccc(O)cc1)NC(=O)[C@H](CCC(=O)O)NC(=O)[C@@H](NC(=O)[C@H](Cc1ccccc1)NC(=O)[C@H](C)NC(=O)C(C)(C)NC(=O)[C@H](CCC(N)=O)NC(=O)[C@H](C)NC(=O)[C@H](CCCCNC(=O)COCCOCCNC(=O)COCCOCCNC(=O)CC[C@H](NC(=O)CCCCCCCCCCCCCCCCCCC(=O)O)C(=O)O)NC(=O)[C@H](CCC(=O)O)NC(=O)[C@H](CC(=O)O)NC(=O)[C@H](CC(C)C)NC(=O)[C@H](CC(C)C)NC(=O)[C@@H](NC(=O)[C@H](CO)NC(=O)[C@H](Cc1ccc(O)cc1)NC(=O)[C@H](CC(=O)O)NC(=O)[C@H](CO)NC(=O)[C@@H](NC(=O)[C@H](Cc1ccccc1)NC(=O)[C@@H](NC(=O)CNC(=O)[C@H](CCC(=O)O)NC(=O)C(C)(C)NC(=O)[C@@H](N)Cc1ccc(O)cc1)[C@@H](C)O)[C@@H](C)O)[C@@H](C)CC)[C@@H](C)CC)C(=O)N[C@@H](CCC(=O)O)C(=O)NCC(=O)NCC(=O)N1CCC[C@H]1C(=O)N[C@@H](CO)C(=O)N[C@@H](CO)C(=O)NCC(=O)N[C@@H](C)C(=O)N1CCC[C@H]1C(=O)N1CCC[C@H]1C(=O)N1CCC[C@H]1C(=O)N[C@@H](CO)C(N)=O
B12: Example 260 (peptide)
peptide: Y[Aib]EGTFTSDHSILLDKK([AEEA-AEEA-γGlu-C20 diacid])AQ[Aib]AFIEYLIEGGPSSGAPPPS-NH2
modifications: N-terminus assumed
SMILES: CC[C@H](C)[C@H](NC(=O)[C@H](CC(C)C)NC(=O)[C@H](Cc1ccc(O)cc1)NC(=O)[C@H](CCC(=O)O)NC(=O)[C@@H](NC(=O)[C@H](Cc1ccccc1)NC(=O)[C@H](C)NC(=O)C(C)(C)NC(=O)[C@H](CCC(N)=O)NC(=O)[C@H](C)NC(=O)[C@H](CCCCNC(=O)COCCOCCNC(=O)COCCOCCNC(=O)CC[C@H](NC(=O)CCCCCCCCCCCCCCCCCCC(=O)O)C(=O)O)NC(=O)[C@H](CCCCN)NC(=O)[C@H](CC(=O)O)NC(=O)[C@H](CC(C)C)NC(=O)[C@H](CC(C)C)NC(=O)[C@@H](NC(=O)[C@H](CO)NC(=O)[C@H](Cc1c[nH]cn1)NC(=O)[C@H](CC(=O)O)NC(=O)[C@H](CO)NC(=O)[C@@H](NC(=O)[C@H](Cc1ccccc1)NC(=O)[C@@H](NC(=O)CNC(=O)[C@H](CCC(=O)O)NC(=O)C(C)(C)NC(=O)[C@@H](N)Cc1ccc(O)cc1)[C@@H](C)O)[C@@H](C)O)[C@@H](C)CC)[C@@H](C)CC)C(=O)N[C@@H](CCC(=O)O)C(=O)NCC(=O)NCC(=O)N1CCC[C@H]1C(=O)N[C@@H](CO)C(=O)N[C@@H](CO)C(=O)NCC(=O)N[C@@H](C)C(=O)N1CCC[C@H]1C(=O)N1CCC[C@H]1C(=O)N1CCC[C@H]1C(=O)N[C@@H](CO)C(N)=O
B13: Example 336 (peptide)
peptide: B5 peptide with Y1X, F6X, L13X, A20X
modifications: not fully specified; D-Tyr1, Aib2, αMeF(2F)6, αMeL13, (2-[2-(2-Amino-ethoxy)-ethoxy]-acetyl)2-(γ-Glu)-CO-(CH2)18-CO2H on K17, Aib20, C-terminal NH2
B14: Example 359 (peptide)
peptide: XXEGTFTSDYSIXLDXKAQXEFVEYLIAGGPSSGAPPPS
modifications: D-Tyr1, Aib2, αMeL13, Orn16, (2-[2-(2-Amino-ethoxy)-ethoxy]-acetyl)2-(γ-Glu)-CO-(CH2)18-CO2H on K17, Aib20, C-terminal NH2

molecular target: T1, human gastric inhibitory peptide …; experiment: cell-based or functional assay

Compared with B1, B2 is higher in “hGIPR cAMP EC50 ratio” value: 2.58 for the first, 5.08 for the second.

Going from B3 to B4, the “hGIPR cAMP EC50 ratio” value rises from 3.84 to 4.27.

First: B5
Second: B6
The “hGIPR cAMP EC50 ratio” value of the first is lower: 0.684 for the first, 0.695 for the second.

Compared with B7, B8 is lower in “hGIPR cAMP EC50 ratio” value: 1.47 for the first, 0.233 for the second.

Going from B9 to B10, the “hGIPR cAMP EC50 ratio” value falls from 0.316 to 0.0616.

Compared with B11, B12 is lower in “hGIPR cAMP EC50 ratio” value: 0.582 for the first, 0.242 for the second.

Compared with B1, B2 is 1.9-fold lower in “hGIPR cAMP Rel EC50” value: 0.0622 nM for the first, 0.0328 nM for the second.

B3 and B4 are within 1.5-fold of each other in “hGIPR cAMP Rel EC50” value: 0.0437 nM for the first, 0.0376 nM for the second.

B5 and B6 are within 1.5-fold of each other in “hGIPR cAMP Rel EC50” value: 0.219 nM for the first, 0.215 nM for the second.

First: B7
Second: B8
The “hGIPR cAMP Rel EC50” value of the first is 6.3-fold lower: 0.102 nM for the first, 0.643 nM for the second.

First: B9
Second: B10
The “hGIPR cAMP Rel EC50” value of the first is 5.1-fold lower: 0.474 nM for the first, 2.43 nM for the second.

Compared with B11, B12 is 2.4-fold higher in “hGIPR cAMP Rel EC50” value: 0.257 nM for the first, 0.617 nM for the second.

Going from B13 to B14, the “hGIPR cAMP Rel EC50” value rises from 0.0312 nM to 0.172 nM (5.5-fold).

molecular target: human GLP-1 receptor (GLP-1R) (human, UniProt P43220 24-463); experiment: cell-based or functional assay

Going from B1 to B2, the “hGLP1R cAMP EC50 ratio” value rises from 0.614 to 0.8.

Going from B3 to B4, the “hGLP1R cAMP EC50 ratio” value rises from 0.778 to 0.985.

Compared with B5, B6 is higher in “hGLP1R cAMP EC50 ratio” value: 0.638 for the first, 1.26 for the second.

Compared with B7, B8 is lower in “hGLP1R cAMP EC50 ratio” value: 1.71 for the first, 1.38 for the second.

First: B9
Second: B10
The “hGLP1R cAMP EC50 ratio” value of the first is higher: 0.895 for the first, 0.401 for the second.

Compared with B11, B12 is lower in “hGLP1R cAMP EC50 ratio” value: 0.482 for the first, 0.171 for the second.

B1 and B2 are within 1.5-fold of each other in “hGLP1R cAMP Rel EC50” value: 0.0491 nM for the first, 0.0428 nM for the second.

B3 and B4 are within 1.5-fold of each other in “hGLP1R cAMP Rel EC50” value: 0.0446 nM for the first, 0.0306 nM for the second.

First: B5
Second: B6
The “hGLP1R cAMP Rel EC50” value of the first is 2-fold higher: 0.109 nM for the first, 0.0553 nM for the second.

B7 and B8 are within 1.5-fold of each other in “hGLP1R cAMP Rel EC50” value: 0.0407 nM for the first, 0.0506 nM for the second.

First: B9
Second: B10
The “hGLP1R cAMP Rel EC50” value of the first is 2.2-fold lower: 0.0779 nM for the first, 0.174 nM for the second.

First: B11
Second: B12
The “hGLP1R cAMP Rel EC50” value of the first is 2.8-fold lower: 0.145 nM for the first, 0.408 nM for the second.
